This note sets out measurements from paper PMC8307404, “Crystal Structure-Guided Design of Bisubstrate Inhibitors and Photoluminescent Probes for Protein Kinases of the PIM Family” (Molecules, 2021).

Holding throughout (test): Kinase profiling (radiometric filter-binding)
Common to all, as to format: biochemical

One data set addresses IRAK1 (Homo sapiens, UniProt P51617). Conditions: IRAK1, 1 µM inhibitor; read-out: Residual activity, %. In short, it runs like this: (§1)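 Radiometric filter-binding; human PKs; ATP ≤ KM per kinase; compound 1 µM final; readout = % residual activity vs no-inhibitor control.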
Another data set deals with T1, EPH-B4 (Homo sapiens, UniProt P54760).
T1 sequence (P54760 16-987): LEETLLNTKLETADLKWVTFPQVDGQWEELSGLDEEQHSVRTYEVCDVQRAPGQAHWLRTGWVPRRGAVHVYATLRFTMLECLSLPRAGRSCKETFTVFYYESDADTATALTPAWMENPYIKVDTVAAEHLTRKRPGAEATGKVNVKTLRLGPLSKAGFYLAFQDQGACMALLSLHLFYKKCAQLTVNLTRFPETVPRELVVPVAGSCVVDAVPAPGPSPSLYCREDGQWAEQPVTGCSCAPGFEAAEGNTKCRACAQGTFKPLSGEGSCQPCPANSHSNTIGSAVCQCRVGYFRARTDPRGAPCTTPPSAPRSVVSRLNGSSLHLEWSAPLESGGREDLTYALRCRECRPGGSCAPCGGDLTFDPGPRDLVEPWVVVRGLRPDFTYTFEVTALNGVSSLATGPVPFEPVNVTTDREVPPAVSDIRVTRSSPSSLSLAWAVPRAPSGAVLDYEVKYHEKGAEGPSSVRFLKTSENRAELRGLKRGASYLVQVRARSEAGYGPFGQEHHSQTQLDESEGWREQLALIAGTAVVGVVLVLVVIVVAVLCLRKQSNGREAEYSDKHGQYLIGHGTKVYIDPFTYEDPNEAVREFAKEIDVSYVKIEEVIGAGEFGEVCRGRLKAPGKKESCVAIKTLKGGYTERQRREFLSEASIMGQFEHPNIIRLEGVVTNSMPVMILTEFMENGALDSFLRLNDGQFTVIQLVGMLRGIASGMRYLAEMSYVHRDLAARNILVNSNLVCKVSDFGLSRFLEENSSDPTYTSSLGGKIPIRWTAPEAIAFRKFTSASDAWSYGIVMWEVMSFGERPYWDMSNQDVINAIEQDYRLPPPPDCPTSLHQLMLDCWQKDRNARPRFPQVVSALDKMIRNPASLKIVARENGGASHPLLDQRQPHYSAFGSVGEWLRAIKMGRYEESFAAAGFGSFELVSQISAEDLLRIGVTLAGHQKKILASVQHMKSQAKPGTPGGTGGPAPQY
Conditions: EPH-B4, 1 µM inhibitor; read-out: Residual activity, %. The essentials: as §1

A further data set concerns the target MEKK1 (Homo sapiens, UniProt Q13233). The note with it: MEKK1, 1 µM inhibitor; read-out: Residual activity, %. The essentials:
as §1

For another data set, the target named is EF2K (Homo sapiens, UniProt O00418). Conditions: 1 µM inhibitor, read-out: Residual activity, %. The essentials:
as §1

Another data set has as its target T2, EPH-B2 (Homo sapiens, UniProt P29323).
T2 sequence (P29323 19-1055): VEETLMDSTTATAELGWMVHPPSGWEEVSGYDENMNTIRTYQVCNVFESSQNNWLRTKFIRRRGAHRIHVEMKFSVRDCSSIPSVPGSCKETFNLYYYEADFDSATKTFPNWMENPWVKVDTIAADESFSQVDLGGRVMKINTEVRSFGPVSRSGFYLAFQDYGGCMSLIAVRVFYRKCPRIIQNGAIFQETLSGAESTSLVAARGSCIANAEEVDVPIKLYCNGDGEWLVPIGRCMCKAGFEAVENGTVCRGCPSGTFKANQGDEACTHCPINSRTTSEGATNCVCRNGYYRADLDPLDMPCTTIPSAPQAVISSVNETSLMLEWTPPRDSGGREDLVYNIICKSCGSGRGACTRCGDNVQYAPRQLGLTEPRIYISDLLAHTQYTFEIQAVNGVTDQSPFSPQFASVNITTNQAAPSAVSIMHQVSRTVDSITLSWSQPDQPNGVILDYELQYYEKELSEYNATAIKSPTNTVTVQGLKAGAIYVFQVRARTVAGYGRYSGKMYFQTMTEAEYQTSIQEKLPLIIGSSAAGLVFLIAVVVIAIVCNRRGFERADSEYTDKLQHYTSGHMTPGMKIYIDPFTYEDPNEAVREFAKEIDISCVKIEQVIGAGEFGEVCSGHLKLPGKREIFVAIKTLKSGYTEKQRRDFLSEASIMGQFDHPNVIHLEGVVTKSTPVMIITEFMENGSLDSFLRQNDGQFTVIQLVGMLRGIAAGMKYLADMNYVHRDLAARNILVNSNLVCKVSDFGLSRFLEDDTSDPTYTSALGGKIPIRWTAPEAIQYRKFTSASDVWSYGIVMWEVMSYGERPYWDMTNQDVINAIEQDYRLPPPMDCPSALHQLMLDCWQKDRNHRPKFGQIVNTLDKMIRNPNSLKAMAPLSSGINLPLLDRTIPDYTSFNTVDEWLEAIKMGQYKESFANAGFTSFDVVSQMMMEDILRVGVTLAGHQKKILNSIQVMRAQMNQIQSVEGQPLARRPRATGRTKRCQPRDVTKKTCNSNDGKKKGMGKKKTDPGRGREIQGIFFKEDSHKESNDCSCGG
Conditions: EPH-B2, 1 µM inhibitor; read-out: Residual activity, %. The essentials:
as §1

Square brackets hold non-standard residues; d marks the D form. Peptide text beside a SMILES is read from it. * marks the point of attachment. X3 = O=C(CCCCCNCc1nc2c(sc3cc(Br)cnc32)c(=O)[nH]1)*

Chain of MEKK1 (Q13233 whole entry): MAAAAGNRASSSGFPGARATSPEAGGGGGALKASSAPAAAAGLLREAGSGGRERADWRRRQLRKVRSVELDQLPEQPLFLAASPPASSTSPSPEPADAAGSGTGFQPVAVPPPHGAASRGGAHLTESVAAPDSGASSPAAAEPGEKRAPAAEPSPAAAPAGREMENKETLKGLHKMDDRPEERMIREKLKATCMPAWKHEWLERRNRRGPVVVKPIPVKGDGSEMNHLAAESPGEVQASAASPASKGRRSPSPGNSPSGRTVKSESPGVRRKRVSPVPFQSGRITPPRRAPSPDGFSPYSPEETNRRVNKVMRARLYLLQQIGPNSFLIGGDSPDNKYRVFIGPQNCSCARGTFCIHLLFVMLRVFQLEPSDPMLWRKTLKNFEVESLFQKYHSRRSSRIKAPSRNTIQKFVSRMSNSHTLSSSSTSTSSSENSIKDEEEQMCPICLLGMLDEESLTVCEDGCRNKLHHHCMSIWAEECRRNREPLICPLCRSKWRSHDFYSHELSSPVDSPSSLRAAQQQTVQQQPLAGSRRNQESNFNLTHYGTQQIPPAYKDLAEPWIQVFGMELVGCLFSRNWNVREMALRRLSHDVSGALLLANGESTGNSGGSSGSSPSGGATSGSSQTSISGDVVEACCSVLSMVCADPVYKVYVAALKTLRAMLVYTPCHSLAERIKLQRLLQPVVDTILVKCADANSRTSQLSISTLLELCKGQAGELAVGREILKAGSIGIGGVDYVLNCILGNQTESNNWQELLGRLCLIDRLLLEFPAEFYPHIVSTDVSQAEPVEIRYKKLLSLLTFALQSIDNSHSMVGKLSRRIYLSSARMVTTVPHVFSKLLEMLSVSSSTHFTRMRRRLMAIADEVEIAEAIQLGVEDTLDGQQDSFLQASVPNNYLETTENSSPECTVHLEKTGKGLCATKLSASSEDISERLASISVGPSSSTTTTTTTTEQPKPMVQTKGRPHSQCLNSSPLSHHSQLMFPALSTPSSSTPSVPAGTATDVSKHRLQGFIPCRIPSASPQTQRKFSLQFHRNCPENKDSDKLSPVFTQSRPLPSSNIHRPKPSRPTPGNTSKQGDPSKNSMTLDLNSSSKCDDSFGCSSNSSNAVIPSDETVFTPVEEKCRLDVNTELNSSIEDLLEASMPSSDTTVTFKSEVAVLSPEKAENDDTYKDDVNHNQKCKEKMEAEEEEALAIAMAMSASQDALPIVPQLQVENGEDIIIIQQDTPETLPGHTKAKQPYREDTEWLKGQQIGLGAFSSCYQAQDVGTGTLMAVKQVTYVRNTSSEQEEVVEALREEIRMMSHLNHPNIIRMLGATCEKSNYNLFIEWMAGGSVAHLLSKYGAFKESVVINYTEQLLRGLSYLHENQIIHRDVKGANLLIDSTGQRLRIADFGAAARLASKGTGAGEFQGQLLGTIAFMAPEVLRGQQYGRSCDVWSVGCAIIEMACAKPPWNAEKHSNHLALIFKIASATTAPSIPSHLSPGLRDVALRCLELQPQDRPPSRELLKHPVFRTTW
Chain of IRAK1 (P51617 whole entry): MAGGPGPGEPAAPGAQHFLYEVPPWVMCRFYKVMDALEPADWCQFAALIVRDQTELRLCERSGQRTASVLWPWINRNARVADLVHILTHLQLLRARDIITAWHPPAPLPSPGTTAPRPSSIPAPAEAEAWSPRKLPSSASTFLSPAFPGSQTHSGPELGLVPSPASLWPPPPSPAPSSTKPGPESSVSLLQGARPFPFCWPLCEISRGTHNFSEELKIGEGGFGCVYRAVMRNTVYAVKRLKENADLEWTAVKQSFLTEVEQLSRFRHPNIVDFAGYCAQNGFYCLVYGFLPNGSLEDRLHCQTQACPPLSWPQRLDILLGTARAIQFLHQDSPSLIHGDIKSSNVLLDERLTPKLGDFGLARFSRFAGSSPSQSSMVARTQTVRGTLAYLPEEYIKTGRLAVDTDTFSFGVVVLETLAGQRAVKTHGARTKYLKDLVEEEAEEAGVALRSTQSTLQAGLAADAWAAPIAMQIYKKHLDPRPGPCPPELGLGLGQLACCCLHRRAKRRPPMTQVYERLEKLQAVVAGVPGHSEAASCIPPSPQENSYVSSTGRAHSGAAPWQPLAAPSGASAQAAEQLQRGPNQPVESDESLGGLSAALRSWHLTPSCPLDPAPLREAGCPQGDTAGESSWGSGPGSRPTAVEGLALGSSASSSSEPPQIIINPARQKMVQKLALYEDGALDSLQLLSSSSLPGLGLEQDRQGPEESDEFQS

`N=C(N)NCCC[C@@H](NC(=O)CCCCCNC(=O)Cn1cnc2c(I)c(I)c(I)c(I)c21)C(=O)N[C@H](CCCNC(=N)N)C(=O)N[C@H](CCCNC(=N)N)C(=O)N[C@H](CCCNC(=N)N)C(=O)N[C@H](CCCNC(=N)N)C(=O)N[C@H](CCCNC(=N)N)C(=O)N[C@H](CCCCN)C(N)=O` [ARC-3125, TIBI-CH2-C(=O)-Ahx-(D-Arg)6-D-Lys-NH2]: the remaining activity at 1 µM with IRAK1 came to 16 ± 3%; in the data set with EPH-B4 it was 119 ± 7%; with MEKK1, 77 ± 1%; with EF2K, 103 ± 1%; with EPH-B2, 102 ± 8%.

In the case of `N=C(N)NCCC[C@@H](NC(=O)CCCCCNCc1nc2c(sc3cc(Br)cnc32)c(=O)[nH]1)C(=O)N[C@H](CCCNC(=N)N)C(=O)N[C@H](CCCNC(=N)N)C(=O)N[C@H](CCCNC(=N)N)C(=O)N[C@H](CCCNC(=N)N)C(=O)N[C@H](CCCNC(=N)N)C(=O)N[C@H](CCCCN)C(N)=O` [ARC-3126, BPTP-Ahx-(D-Arg)6-D-Lys-NH2] (X3-[dR][dR][dR][dR][dR][dR][dK]-NH2), the remaining activity at 1 µM with IRAK1 amounted to 120 ± 2%; in the data set with EPH-B4 it was 101 ± 10%; with MEKK1, 103 ± 2%; with EF2K, 85 ± 10%; with EPH-B2 it was 107 ± 4%.

`N=C(N)NCCC[C@@H](NC(=O)CNC(=O)[C@@H](CCCNC(=N)N)NC(=O)[C@@H](CCCNC(=N)N)NC(=O)CCCCCCCNCc1nc2c(sc3cc(Br)cnc32)c(=O)[nH]1)C(=O)N[C@H](CCCCN)C(N)=O` [Compound 1, BPTP-Aoc-(D-Arg)2-Gly-D-Arg-D-Lys-NH2]: the remaining activity at 1 µM with IRAK1 amounted to 131 ± 17%; in the data set with EPH-B4, 104 ± 2%; with MEKK1, 108 ± 16%; with EF2K it was 104 ± 2%; with EPH-B2, 95 ± 16%.

As to `N=C(N)NCCC[C@@H](NC(=O)CNC(=O)[C@@H](CCCNC(=N)N)NC(=O)[C@@H](CCCNC(=N)N)NC(=O)CCCCCCCNCc1nc2c(sc3ccc(Br)cc32)c(=O)[nH]1)C(=O)N[C@H](CCCCN)C(N)=O` [Compound 2, BBTP-Aoc-(D-Arg)2-Gly-D-Arg-D-Lys-NH2], the remaining activity at 1 µM with IRAK1 amounted to 134 ± 21%; with EPH-B4, 118 ± 11%; with MEKK1 it was 119 ± 5%; with EF2K, 98 ± 7%; with EPH-B2 it was 100 ± 5%.

As for `N=C(N)NCCC[C@@H](NC(=O)CNC(=O)[C@@H](CCCNC(=N)N)NC(=O)[C@@H](CCCNC(=N)N)NC(=O)Cn1cc(CNCc2nc3c(sc4ccc(Br)cc43)c(=O)[nH]2)nn1)C(=O)N[C@H](CCCCN)C(N)=O` [Compound 3, BBTP-Amt-(D-Arg)2-Gly-D-Arg-D-Lys-NH2], the remaining activity at 1 µM with IRAK1 was found to be 113 ± 11%; with EPH-B4, 98 ± 13%; with MEKK1, 98 ± 2%; with EF2K, 102 ± 3%; with EPH-B2, 96 ± 14%.
